Test [1] concerns the target high-affinity oncomodulin receptor on retinal ganglion cells (RGCs) (rat). Put plainly: cell-based or functional assay.
Test [2] has the same target. As to the kind of experiment: displacement of AP-OM (40 nM, equilibrium binding) from RGCs by unlabeled oncomodulin.
The target is the same in test [3]. Put plainly: AP-OM binding to lightly fixed, forskolin-treated immunopurified rat RGCs; saturation curve.
The target is the same in test [4]. As to the kind of experiment: AP-OM binding to lightly fixed, forskolin-treated immunopurified rat RGCs; saturation curve and Scatchard plot.

Some results are limits rather than exact numbers.

The IC50 is the midpoint of a concentration-inhibition curve. High values mean a need for much substance, low ones inhibition by little substance. In test [1], “recombinant rat oncomodulin (from UniProt P02631 2-109) (ligand)” came in with an effective concentration for half-maximum response (EC50) of axon outgrowth from RGCs of 3.8 nM. This substance registered an IC50 in test [2] of 30 nM.

As usually defined, the Kd is the free concentration of one partner at which half of the binding sites on the other are occupied at equilibrium, for simple one-to-one binding. A higher Kd goes with weaker binding. Regarding “alkaline phosphatase (AP)-oncomodulin fusion protein (from UniProt P02631 1-109) (ligand)”, the concentration at which binding saturated in test [3] is more than 100 nM. The same substance returned a Kd in test [4] of 28 nM.

Source of the values: patent US20090156496A1, “METHODS AND COMPOSITIONS FOR TREATING AND PREVENTING PERIPHERAL NERVE DAMAGE” (CHILDREN'S MEDICAL CENTER CORPORATION, INC., priority 2006, published 2009).
